These results are taken from publication PMC9978625, “Activation of protein arginine methyltransferase 1 and subsequent extension of moth lifespan is effected by the ROS/JNK/CREB signaling axis”.

For this series, the target named is T1, CREB (Har-CREB) (Helicoverpa armigera, UniProt A0A3G1CVR7 1-265).
T1 sequence: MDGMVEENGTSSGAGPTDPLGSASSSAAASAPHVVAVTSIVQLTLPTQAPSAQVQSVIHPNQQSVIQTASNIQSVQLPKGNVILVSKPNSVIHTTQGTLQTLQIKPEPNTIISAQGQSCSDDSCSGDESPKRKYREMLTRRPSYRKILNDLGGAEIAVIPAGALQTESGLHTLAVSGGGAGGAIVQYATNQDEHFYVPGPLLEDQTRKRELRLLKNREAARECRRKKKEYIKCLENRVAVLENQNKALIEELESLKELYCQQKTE
In words: EMSA; shift competed by 100-fold unlabeled PS; EMSA (LightShift): 20 ul, 50 ng/ul poly(dI-dC), 2.5% glycerol, 5 mM MgCl2, 0.05% NP40, 20 fmol biotin probe, RT 20 min; pH and salt not stated. MPS (S22/S23) and NS competitors were tested only with brain nuclear extract without supershift, so not listed. Particulars: protein: ivt; chain copies: 2; blunt.

B1: PS (PRMT1 promoter-specific probe) (dsDNA)
DNA 1: CGTTTTTGATATGAGGAAAATGAGCTCTGCAA
DNA 2: TTGCAGAGCTCATTTTCCTCATATCAAAAACG
Consider B1, for which the binding result is “binds”.
